The values that follow come from patent US8541175B2, “Detection of molecular interactions using a reduced affinity enzyme complementation reporter system” (The Board of Trustees of the Leland Stanford Junior …, priority 2006, dated 2013).

Holding throughout (format): cell-based
The target of data set [1] is EGFR homodimers in the presence of excess ErbB2 (Homo sapiens, UniProt P04626). Put plainly: EGFR homodimerization in EGFRα*-EGFRω cell line overexpressing wild-type ErbB2. The following applies: EGFRα*-EGFRω cells overexpressing wild-type ErbB2; increasing concentrations of EGF.
Text: As a test of this hypothesis, the wildtype ErbB2 lacking a β-gal fragment was overexpressed in the EGFRα*-EGFRω cell line. […] This disruption allowed EGFRα* and EGFRω to interact and homodimerize.
The target in data set [2] is T1, ErbB2 homodimers (Homo sapiens, UniProt P04626).
T1 construct: ErbB2 (aa 1-686); expressed in transfected cells; host or cells: C2C12 cells, retroviral transduction
Briefly: Low affinity β-gal complementation, ErbB2ω-ErbB2α* homodimerization. The following applies: ligand for 45 min; 20,000 cells per well. The source says: To perform a quantitative comparison of the different pairs of receptors, receptor expression level in cells was controlled, as the amount of β-gal fusion protein affects β-gal enzyme activity (FIG. 2). To this end, two parental cell lines were constructed using C2C12 cells in which ErbB family members are expressed at very low levels (S. Corti et al., Exp Cell Res 268, 36 (Aug. 1, 2001)). These cells were engineered to express either the ErbB2-ω or the EGFR-ω fusion proteins. Each of the ω-expressing parental cell lines were then split and transduced with each of three constructs encoding different α-fusion proteins, EGFR-α*, ErbB2-α*, and ErbB3-α*. Because the cells were generated from the same parental line, they expressed equivalent amounts of ω. To allow measurement of α* chimeric protein expression levels, YFP was included in each construct, between the ErbB receptor and the α*. […] YFP was imaged by confocal microscopy to ensure that the receptor fusion proteins were appropriately localized to the plasma membrane, which is essential to their function (FIG. 3).
Cells were returned to a 37° C.
Isoproterenol, propranolol and rapamycin were from Sigma.

Data set [3] addresses EGFR and ErbB2 (Homo sapiens, UniProt P04626). Briefly: Low affinity β-gal complementation, EGFR-ErbB2 heterodimerization. The following applies: for loss of β-gal activity (heterodimer dissociation) after removal of ligand: EGFRω-ErbB2α* cells, ligand added, then washout.
Text: To perform a quantitative comparison of the different pairs of receptors, receptor expression level in cells was controlled, as the amount of β-gal fusion protein affects β-gal enzyme activity (FIG. 2). […] These cells were engineered to express either the ErbB2-ω or the EGFR-ω fusion proteins. Each of the ω-expressing parental cell lines were then split and transduced with each of three constructs encoding different α-fusion proteins, EGFR-α*, ErbB2-α*, and ErbB3-α*. Because the cells were generated from the same parental line, they expressed equivalent amounts of ω. To allow measurement of α* chimeric protein expression levels, YFP was included in each construct, between the ErbB receptor and the α*.

On to “EGF: recombinant human EGF from Peprotech, ligand that binds the EGFR”, for which the “β-gal activity in response to EGF, no antibody” value in data set [1] is listed as “failed to stimulate β-gal activity”. The “response of ErbB2ω-ErbB2α* cells to ligand (β-gal activity)” value in data set [2] is on record as “not responsive”. Further, in data set [3] (100 ng/ml EGF), the “EGFRω-ErbB2α* heterodimer formation over time (enzyme activity)” value is “time-dependent increase in enzyme activity”. Moreover, the “loss of β-gal activity (heterodimer dissociation) after removal of ligand” value in data set [3] is listed as “β-gal activity decreased over time”. Besides, the “ligand-induced heterodimerization of EGFR with ErbB2 (β-gal activity)” value in data set [3] (ligand for 45 min, 20,000 cells per well) is on record as “heterodimerization of EGFR with ErbB2”.
For “TGF-α: recombinant human TGF-α from Peprotech, EGFR ligand”, in data set [3], the “loss of β-gal activity (heterodimer dissociation) after removal of ligand” value is “signal decayed more rapidly following TGF-α than after EGF exposure”.
